Results on 2 substances are retold here after US20110312897.

The data set concerns C-terminally 6xHIS tagged, full-length recombinant histone H3.

As to “recombinant Cathepsin B (R&D Systems Cat No. BAF965)”, the “H3 cleavage assay with pre-activated enzyme, immunoblot with HIS and H3.cs1 antibodies” value was “Cathepsin B cleaves rH3 with a distinct pattern from Cathepsins K or L and does not significantly produce the H3.cs1 epitope”.
Under “recombinant Cathepsin K (Calbiochem Cat. No. 342001)” stands “Cathepsin K produces a similar pattern to Cathepsin L under these assay conditions”.
